Results taken from the Human Domainome abundance scans (Beltran et al. 2025).
± gives the uncertainty stated by the source.

B1: Friend leukemia integration 1 transcription factor, residues 116 to 197; numbered along this chain, Q01543 (parent)
chain: NMTTNERRVIVPADPTLWTQEHVRQWLEWAIKEYSLMEIDTSFFQNMDGKELCKMNKEDFLRATTLYNTEVLLSHLSYLRES

Variants of: B1
Assay: abundance fitness (aPCA) (normalised: wild type 0, dead -1); higher = more abundant; growth selection in yeast, the domain comes from the species named
Settings: Homo sapiens

Abundance fitness, by site and new letter:
A13: R 0.023 ± 0.041, F -0.081 ± 0.086, E 0.189 ± 0.068, I 0.048 ± 0.1, L -0.003 ± 0.04, M -0.036 ± 0.072
V23: A -0.632 ± 0.14, S -0.538 ± 0.19, F -0.686 ± 0.43, Q -0.92 ± 0.3, I -0.386 ± 0.14, R -0.74 ± 0.12, T -0.23 ± 0.13, K -0.752 ± 0.29, L -0.175 ± 0.068, G -0.931 ± 0.27, W -0.814 ± 0.1, P -0.044 ± 0.14, C -0.752 ± 0.22, M -0.844 ± 0.3, D -0.759 ± 0.3
E21: W -0.295 ± 0.1, V -0.111 ± 0.11, S -0.086 ± 0.095, K -0.243 ± 0.14, D -0.084 ± 0.24, T -0.131 ± 0.14, M -0.045 ± 0.1, Q 0.066 ± 0.11, L -0.096 ± 0.073, G -0.151 ± 0.094, A 0.017 ± 0.079, N -0.091 ± 0.19, C -0.371 ± 0.22, I -0.474 ± 0.32
T19: F -0.79 ± 0.47, G -0.194 ± 0.097, I -0.529 ± 0.2, V -0.351 ± 0.12, M -0.39 ± 0.11, E -0.597 ± 0.38, H 0.12 ± 0.12, K -0.12 ± 0.13, C -0.296 ± 0.27, N -0.263 ± 0.17, P -1.02 ± 0.48, W -0.796 ± 0.16, S -0.113 ± 0.13, L -0.243 ± 0.063, A -0.309 ± 0.14, R -0.12 ± 0.077
R24: P -0.804 ± 0.22, F -0.044 ± 0.39, K -0.09 ± 0.098, H -0.161 ± 0.31, T -0.058 ± 0.093, W 0.054 ± 0.11, M -0.131 ± 0.1, S 0.093 ± 0.083, I -0.183 ± 0.24, Y -0.278 ± 0.29, E -0.348 ± 0.17, L -0.011 ± 0.07, A 0.106 ± 0.082, G 0.039 ± 0.082, C -0.347 ± 0.28
D14: R -0.701 ± 0.12, Q 0.155 ± 0.27, K -0.564 ± 0.19, E 0.096 ± 0.12, T -0.388 ± 0.12, W -0.354 ± 0.14, S -0.229 ± 0.17, V -0.353 ± 0.1, C -0.164 ± 0.15, A -0.237 ± 0.1, I -0.467 ± 0.24, F -0.517 ± 0.22, P -0.415 ± 0.26, N -0.063 ± 0.21, Y 0.011 ± 0.26, L -0.51 ± 0.091, M -0.421 ± 0.14
E28: F -0.366 ± 0.28, S -0.123 ± 0.12, T -0.017 ± 0.098, R -0.018 ± 0.063, K 0.058 ± 0.098, L -0.013 ± 0.069, Q 0.005 ± 0.12, P -0.745 ± 0.32, I 0.141 ± 0.23, A 0.006 ± 0.11, M -0.187 ± 0.15, W -0.285 ± 0.11, G -0.189 ± 0.13, C 0.009 ± 0.16, N -0.377 ± 0.49, V -0.035 ± 0.076, Y -0.12 ± 0.25
Q20: D -0.054 ± 0.18, P -0.454 ± 0.21, G -0.057 ± 0.12, L -0.289 ± 0.08, E -0.195 ± 0.14, S 0.047 ± 0.052, V -0.137 ± 0.078, K 0.138 ± 0.19, R -0.077 ± 0.084, M 0.046 ± 0.099, W -0.123 ± 0.11, C -0.176 ± 0.29, N 0.218 ± 0.29, H 0.018 ± 0.35, A -0.126 ± 0.11, T -0.029 ± 0.06, Y -0.109 ± 0.4
H22: P -1.02 ± 0.34, D 0.116 ± 0.13, R -0.266 ± 0.088, A -0.318 ± 0.15, Y -0.365 ± 0.21, S -0.246 ± 0.098, T -0.274 ± 0.092, C -0.529 ± 0.33, K -0.199 ± 0.047, L -0.386 ± 0.069, E 0.062 ± 0.14, M 0.028 ± 0.087, N -0.007 ± 0.14, G -0.106 ± 0.079, I -0.201 ± 0.3, Q 0.045 ± 0.088, V -0.17 ± 0.1
K32: E 0.003 ± 0.082, Q -0.08 ± 0.073, H -0.351 ± 0.13, W -0.159 ± 0.057, D 0.007 ± 0.12, T -0.001 ± 0.083, L -0.169 ± 0.056, F -0.332 ± 0.3, P -0.359 ± 0.099, M -0.209 ± 0.099, I -0.189 ± 0.2, C -0.401 ± 0.11, G -0.2 ± 0.059, R -0.052 ± 0.043, V -0.157 ± 0.064, N -0.011 ± 0.19
Q25: H -0.083 ± 0.25, K 0.041 ± 0.13, R -0.006 ± 0.081, A -0.066 ± 0.091, C 0.036 ± 0.17, W -0.251 ± 0.1, Y -0.143 ± 0.14, L -0.093 ± 0.15, P -0.915 ± 0.25, M -0.187 ± 0.12, E -0.334 ± 0.27, T -0.045 ± 0.081, S -0.246 ± 0.12, N 0.092 ± 0.14, V 0.078 ± 0.091, G -0.039 ± 0.073, F -0.106 ± 0.19
